# What was measured:
# [1] = tested on: basophilic granulocytes of birch pollen allergic individuals; assay: Basophil histamine-release assay; assay type: cell-based, human; details: 10^−3-10 μg/ml
# Protocol: Granulocytes were isolated from heparinized blood samples of 3 birch pollen allergic individuals by dextran sedimentation (Valent, P. et al. (1989) Interleukin 3 activates human blood basophils via high-affinity binding sites. Proc. Natl. Sci. USA 86, 5542-5547). […] Histamine released in the cell-free culture supernatant was measured by radioimmunoassay (Immunotech, Marseille, France). Total histamine was determined after freezing and thawing of cells.
# [2] = tested on: birch pollen allergic patients; assay: Skin prick testing of allergic patients; assay type: in vivo, human
# Protocol: SPTs were performed on the individuals forearms as described ([…]. et al. (1997) J. Clin Invest. 99, 1673-168; Dreborg S: (1989) J. Am. Acad. DerMatol. 21, 820-821). […] In addition standardized skin prick solutions (birch pollen extract and histamine) (Allergopharma, Reinbek, Germany) were tested. Reactions were recorded 20 minutes after SPT by photography and by transferring the ballpoint pen-surrounded wheal area with a scotch tape to paper.
# [3] = tested on: IgE antibodies in sera from birch pollen allergic patients; assay: ELISA detection of peptide- and rBet v 1-specific IgE antibodies; assay type: binding, human
# How it was run: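 IgE binding detected by 1:1000 alkaline-phosphatase mouse monoclonal anti-human IgE after overnight 4 °C incubation with 1:3-diluted sera. Sera came from 60 birch pollen allergic patients (25 male, 35 female, age 19–60) and a non-atopic control.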
# [4] = all 60 birch pollen allergic patients
molecule,measurement,setting,value
"rBet v 1: purified recombinant Bet v 1, major birch pollen allergen, purchased from BIOMAY (protein) GVFNYETETTSVIPAARLFKAFILDGDNLFPKVAPQAISSVENIEGNGGPGTIKKISFPEGFPFKYVKDRVDEVDHTNFKYNYSVIEGGPIGDTLEKISNEIKIVATPDGGSILKISNKYHTKGDHEVKAEQVKASKEMGETLLRAVESYLLAHSDAYN",induction of histamine release,[1],dose-dependent release of histamine
same,concentration inducing immediate type skin reactions in three patients (#1-3),"[2]; human, in vivo",< 0.78 µg/mL
same,concentration sufficient to induce wheal reactions in all five birch pollen allergic patients,"[2]; human, in vivo",3.12 µg/mL
same,mean wheal diameter,"[2]; individual 1, rBet v 1 0.39 μg/ml",2.5 mm
same,mean wheal diameter,"[2]; individual 1, rBet v 1 0.78 μg/ml",4 mm
same,mean wheal diameter,"[2]; individual 1, rBet v 1 1.56 μg/ml",4.5 mm
same,mean wheal diameter,"[2]; individual 1, rBet v 1 3.12 μg/ml",5 mm
same,mean wheal diameter,"[2]; individual 1, rBet v 1 6.25 μg/ml",6 mm
same,mean wheal diameter,"[2]; individual 1, rBet v 1 12.5 μg/ml",13 mm
same,mean wheal diameter,"[2]; individual 2, rBet v 1 0.39 μg/ml",2 mm
same,mean wheal diameter,"[2]; individual 2, rBet v 1 0.78 μg/ml",3.5 mm
same,mean wheal diameter,"[2]; individual 2, rBet v 1 1.56 μg/ml",5 mm
same,mean wheal diameter,"[2]; individual 2, rBet v 1 3.12 μg/ml",5.5 mm
same,mean wheal diameter,"[2]; individual 2, rBet v 1 6.25 μg/ml",7 mm
same,mean wheal diameter,"[2]; individual 2, rBet v 1 12.5 μg/ml",7.5 mm
same,mean wheal diameter,"[2]; individual 2, rBet v 1 25 μg/ml",8 mm
same,mean wheal diameter,"[2]; individual 3, rBet v 1 0.78 μg/ml",2 mm
same,mean wheal diameter,"[2]; individual 3, rBet v 1 1.56 μg/ml",3 mm
same,mean wheal diameter,"[2]; individual 3, rBet v 1 3.12 μg/ml",4 mm
same,mean wheal diameter,"[2]; individual 3, rBet v 1 6.25 μg/ml",6 mm
same,mean wheal diameter,"[2]; individual 3, rBet v 1 12.5 μg/ml",6.5 mm
same,mean wheal diameter,"[2]; individual 3, rBet v 1 25 μg/ml",8 mm
same,mean wheal diameter,"[2]; individual 4, rBet v 1 3.12 μg/ml",2 mm
same,mean wheal diameter,"[2]; individual 4, rBet v 1 6.25 μg/ml",3 mm
same,mean wheal diameter,"[2]; individual 4, rBet v 1 12.5 μg/ml",4 mm
same,mean wheal diameter,"[2]; individual 4, rBet v 1 25 μg/ml",4.5 mm
same,mean wheal diameter,"[2]; individual 5, rBet v 1 1.56 μg/ml",2 mm
same,mean wheal diameter,"[2]; individual 5, rBet v 1 3.12 μg/ml",2.5 mm
same,mean wheal diameter,"[2]; individual 5, rBet v 1 6.25 μg/ml",4 mm
same,mean wheal diameter,"[2]; individual 5, rBet v 1 12.5 μg/ml",11 mm
same,mean wheal diameter,"[2]; individual 5, rBet v 1 25 μg/ml",5 mm
same,"rBet v1-specific IgE antibodies, mean",[3]; [4],1.416 OD units
same,"rBet v1-specific IgE antibodies, range",[3]; [4],0.081-2.530 OD units
same,IgE (OD),"[3]; serum of NHS, non-allergic control individual",0.048 OD
same,IgE (OD),[3]; serum of patient 1,0.829 OD
same,IgE (OD),[3]; serum of patient 2,1.380 OD
same,IgE (OD),[3]; serum of patient 3,2.144 OD
same,IgE (OD),[3]; serum of patient 4,0.701 OD
same,IgE (OD),[3]; serum of patient 5,0.344 OD
same,IgE (OD),[3]; serum of patient 6,2.300 OD
same,IgE (OD),[3]; serum of patient 7,2.245 OD
same,IgE (OD),[3]; serum of patient 9,0.196 OD
same,IgE (OD),[3]; serum of patient 10,0.097 OD
same,IgE (OD),[3]; serum of patient 11,0.428 OD
same,IgE (OD),[3]; serum of patient 12,0.271 OD
same,IgE (OD),[3]; serum of patient 13,0.281 OD
same,IgE (OD),[3]; serum of patient 14,0.704 OD
same,IgE (OD),[3]; serum of patient 20,0.249 OD
same,IgE (OD),[3]; serum of patient 21,0.461 OD
same,IgE (OD),[3]; serum of patient 22,0.258 OD
same,IgE (OD),[3]; serum of patient 23,1.555 OD
same,IgE (OD),[3]; serum of patient 25,0.5 OD
same,IgE (OD),[3]; serum of patient 26,0.191 OD
same,IgE (OD),[3]; serum of patient 27,0.535 OD
same,IgE (OD),[3]; serum of patient 28,0.492 OD
same,IgE (OD),[3]; serum of patient 29,0.154 OD
same,IgE (OD),[3]; serum of patient 30,0.081 OD
same,IgE (OD),[3]; serum of patient 32,0.195 OD
same,IgE (OD),[3]; serum of patient 33,0.106 OD
same,IgE (OD),[3]; serum of patient 34,0.377 OD
same,IgE (OD),[3]; serum of patient 36,0.306 OD
same,IgE (OD),[3]; serum of patient 38,1.571 OD
same,IgE (OD),[3]; serum of patient 40,0.084 OD
same,IgE (OD),[3]; serum of patient 43,0.363 OD
same,IgE (OD),[3]; serum of patient 44,2.386 OD
same,IgE (OD),[3]; serum of patient 45,0.289 OD
same,IgE (OD),[3]; serum of patient 47,0.381 OD
same,IgE (OD),[3]; serum of patient 48,1.422 OD
same,IgE (OD),[3]; serum of patient 49,0.379 OD
same,IgE (OD),[3]; serum of patient 51,0.307 OD
same,IgE (OD),[3]; serum of patient 54,1.310 OD
same,IgE (OD),[3]; serum of patient 55,2.489 OD
same,IgE (OD),[3]; serum of patient 56,2.530 OD
same,IgE (OD),[3]; serum of patient 57,0.741 OD
same,IgE (OD),[3]; serum of patient 58,0.072 OD
same,IgE (OD),[3]; serum of patient 59,0.168 OD
